These results are taken from US8114832.

For the assay, the target named is endostatin (UniProt P39060). The experiment in a line: SPR (Biacore), Fn F4-5 immobilized on CM5 chip, concentration series of endostatin.
Sequence of endostatin (P39060 1572-1754): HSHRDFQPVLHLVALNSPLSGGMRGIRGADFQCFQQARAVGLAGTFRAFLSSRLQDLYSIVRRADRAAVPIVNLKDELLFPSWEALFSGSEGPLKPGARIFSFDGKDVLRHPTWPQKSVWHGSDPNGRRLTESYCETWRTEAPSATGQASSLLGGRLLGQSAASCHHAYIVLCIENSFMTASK

Substance “Fn F4-5-His6 (from UniProt P02751 182-276)” displayed a concentration of ligand that results in half maximum binding of 800 nM.
